The results in this text go back to article PMC9163188, “USP53 plays an antitumor role in hepatocellular carcinoma through deubiquitination of cytochrome c” (Oncogenesis, 2022).

In assay [1] the target is T1, GST-HA-USP53 (UniProt Q70EK8 1-1073).
T1 construct: also called GST-HA-USP53 fusion protein; source: E. coli, purified
T1 sequence (looked up): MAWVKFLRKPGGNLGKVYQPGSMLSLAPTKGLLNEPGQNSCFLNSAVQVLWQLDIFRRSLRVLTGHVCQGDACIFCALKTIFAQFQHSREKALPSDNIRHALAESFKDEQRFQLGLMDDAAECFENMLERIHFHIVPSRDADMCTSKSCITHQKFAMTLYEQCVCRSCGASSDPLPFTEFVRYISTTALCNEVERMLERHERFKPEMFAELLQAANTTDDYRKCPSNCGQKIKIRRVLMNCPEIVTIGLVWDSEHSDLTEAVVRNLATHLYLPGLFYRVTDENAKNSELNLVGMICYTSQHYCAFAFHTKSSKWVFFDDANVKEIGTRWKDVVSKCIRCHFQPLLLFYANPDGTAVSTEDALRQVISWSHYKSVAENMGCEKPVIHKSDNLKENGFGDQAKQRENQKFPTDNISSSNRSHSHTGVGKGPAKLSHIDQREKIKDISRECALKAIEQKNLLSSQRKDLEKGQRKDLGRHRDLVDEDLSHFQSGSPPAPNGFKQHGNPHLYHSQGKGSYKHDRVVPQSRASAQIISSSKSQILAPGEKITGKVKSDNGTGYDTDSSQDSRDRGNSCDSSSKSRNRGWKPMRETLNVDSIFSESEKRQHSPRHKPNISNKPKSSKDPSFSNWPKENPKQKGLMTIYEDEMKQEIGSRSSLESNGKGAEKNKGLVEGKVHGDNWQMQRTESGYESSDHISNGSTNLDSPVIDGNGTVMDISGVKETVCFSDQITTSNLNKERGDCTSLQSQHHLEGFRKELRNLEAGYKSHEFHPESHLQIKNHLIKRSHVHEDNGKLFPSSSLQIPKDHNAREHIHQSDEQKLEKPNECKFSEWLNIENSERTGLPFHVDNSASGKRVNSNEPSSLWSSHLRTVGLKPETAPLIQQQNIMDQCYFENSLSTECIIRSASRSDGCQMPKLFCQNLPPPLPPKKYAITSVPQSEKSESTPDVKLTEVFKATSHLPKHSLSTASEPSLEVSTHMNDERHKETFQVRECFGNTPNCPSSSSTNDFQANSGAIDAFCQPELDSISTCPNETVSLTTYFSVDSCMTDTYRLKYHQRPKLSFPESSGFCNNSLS
In words: pull-down; about 100 µg GST-HA-USP53 (or GST-HA) on 50 µL glutathione agarose, 3 washes with PBST, about 100 µg Flag-CYCS fusion protein added, overnight at 4 °C; eluted with 10 mM glutathione in PBS pH 8.0, immunoblot. As to conditions: both partners purified.

In assay [2] the target is T2, Flag-USP53 (of the GST pull-down) (UniProt Q70EK8 1-1073).
T2 construct: ubiquitin-specific peptidase 53 (USP53); If it came from transfected HEK-293T cells it would be the same construct as m1
T2 sequence (looked up): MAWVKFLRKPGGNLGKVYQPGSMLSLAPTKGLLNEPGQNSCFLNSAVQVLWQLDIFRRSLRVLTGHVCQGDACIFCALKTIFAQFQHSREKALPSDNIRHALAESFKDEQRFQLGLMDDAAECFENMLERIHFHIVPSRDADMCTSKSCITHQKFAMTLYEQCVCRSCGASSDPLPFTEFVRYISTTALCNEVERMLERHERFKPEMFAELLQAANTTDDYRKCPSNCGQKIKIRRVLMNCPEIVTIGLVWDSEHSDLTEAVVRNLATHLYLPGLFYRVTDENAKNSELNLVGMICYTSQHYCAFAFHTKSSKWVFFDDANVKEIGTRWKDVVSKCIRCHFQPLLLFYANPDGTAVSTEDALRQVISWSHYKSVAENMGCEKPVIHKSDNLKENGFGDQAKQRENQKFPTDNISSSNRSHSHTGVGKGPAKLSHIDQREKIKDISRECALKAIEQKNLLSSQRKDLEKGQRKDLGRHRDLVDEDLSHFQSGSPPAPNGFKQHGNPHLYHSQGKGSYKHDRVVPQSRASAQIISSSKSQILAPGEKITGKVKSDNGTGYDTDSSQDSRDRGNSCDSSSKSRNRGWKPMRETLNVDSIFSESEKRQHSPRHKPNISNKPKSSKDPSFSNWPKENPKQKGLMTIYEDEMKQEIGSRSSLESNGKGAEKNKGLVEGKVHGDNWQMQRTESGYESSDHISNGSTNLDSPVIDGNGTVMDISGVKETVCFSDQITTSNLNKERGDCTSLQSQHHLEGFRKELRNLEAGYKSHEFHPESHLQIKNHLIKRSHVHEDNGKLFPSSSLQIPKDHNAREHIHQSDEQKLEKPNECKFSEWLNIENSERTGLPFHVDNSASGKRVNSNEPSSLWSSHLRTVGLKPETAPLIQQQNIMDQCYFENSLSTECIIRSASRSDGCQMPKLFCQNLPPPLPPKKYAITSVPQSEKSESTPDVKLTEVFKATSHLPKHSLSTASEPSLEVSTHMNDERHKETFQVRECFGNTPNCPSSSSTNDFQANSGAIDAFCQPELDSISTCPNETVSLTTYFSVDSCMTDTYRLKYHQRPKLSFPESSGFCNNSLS
As to the kind of experiment: pull-down; purified GST-HA-CYCS on glutathione agarose, Flag-USP53 added; same method as for GST-HA-USP53 with Flag-CYCS. As to conditions: both partners purified.

B1: Flag-CYCS (natural protein)
chain: not shown
notes: cytochrome c (CYCS); plasmid provided by …; also called Flag-CYCS fusion protein; source: E. coli (plasmid transfected into E. coli)
In the case of B1, the binding result in assay [1] is “binds”.

B2: GST-HA-CYCS (natural protein)
chain: not shown
notes: cytochrome c (CYCS); plasmid provided by …; also called GST-HA-CYCS fusion protein; source: purified (same method as for GST-HA-USP53: E. coli)
As to B2, the binding result in assay [2] is “binds”.
